Data from patent US20260250410A1 (SICHUAN HUIYU PHARMACEUTICAL, published 2026).

T1: HuCDCP1-C (human, UniProt Q9H5V8 30-667)
T1 construct: range 30-667; expressed in HEK-293T, purified by Fc/his tag; also called human CDCP1-C; full-length extracellular domain of human CDCP1; not shown: Fc or his tag
T1 sequence (looked up): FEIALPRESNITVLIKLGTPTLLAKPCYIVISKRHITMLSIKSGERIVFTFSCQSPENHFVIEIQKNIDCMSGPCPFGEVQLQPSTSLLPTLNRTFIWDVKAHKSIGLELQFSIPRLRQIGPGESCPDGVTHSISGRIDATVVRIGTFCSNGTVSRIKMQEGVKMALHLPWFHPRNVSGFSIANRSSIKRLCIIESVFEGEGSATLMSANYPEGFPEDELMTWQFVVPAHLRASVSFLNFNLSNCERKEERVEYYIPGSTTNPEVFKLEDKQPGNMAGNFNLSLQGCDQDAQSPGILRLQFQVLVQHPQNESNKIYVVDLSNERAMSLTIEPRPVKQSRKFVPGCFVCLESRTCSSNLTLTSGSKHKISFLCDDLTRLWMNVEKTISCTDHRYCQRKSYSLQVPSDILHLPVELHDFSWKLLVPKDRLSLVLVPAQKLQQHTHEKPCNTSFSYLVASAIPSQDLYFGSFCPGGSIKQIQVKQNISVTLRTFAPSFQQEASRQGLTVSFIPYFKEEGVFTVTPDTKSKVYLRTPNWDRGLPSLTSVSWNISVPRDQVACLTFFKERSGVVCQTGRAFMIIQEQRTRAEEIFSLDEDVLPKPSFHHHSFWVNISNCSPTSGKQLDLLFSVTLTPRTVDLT


Molecular target: T1, HuCDCP1-C
Assay: SPR (Caterra), antigen immobilized
Procedure: The humanized anti-CDCP1 antibodies obtained from Example 11 were subjected to gene cloning, constructed into pTT5 expression vector for a small amount of expression in CHO cells (Expi-CHOS: Gibco A29127), and purified with an Fc affinity column (AT Protein A Diamond Plus. No. AA402312). Antibody purity was analyzed by HPLC and determined by Nanodrop. High-throughput affinity assay was carried out for a small amount of antibodies by Caterra.

Binder | Kd [nM] | koff [s⁻¹] | kon [M⁻¹ s⁻¹]
1CP-118 (antibody, human IgG1, kappa, V domains shown, humanized 8E5, human IgG1 kappa) VH: QVQLVQSGSELKKPGESVKVSCKASGYTLTDFSMHWVRQAPGQGLEWMGWINTETGAPTYADDFKGRFVLSLDTSVSTAYLQISSLKSEDTAVYYCSRGRDYDPHFDYWGQGTLVTVSS VL: EIVLTQSPATLSLSPGERATLSCRASQSISDFLHWYQQKPGQSPRLLIKYASQSISGIPARFSGSGSGSDFTLTISSVEPEDFAVYYCQSAHSFPYTFGQGTKLEIKR | 13.4 | 0.00225 | 168000
1CP-123 (antibody, human IgG1, kappa, V domains shown, humanized 8E5, human IgG1 kappa) VH: QVQLQQSGSELKKPGESVKLSCKASGYTLTDFSMHWVRQAPGQGLKWMGWINTETGAPTYADDFKGRFVFSLDTSVSMAYLQISSLKSEDTAVYYCSRGRDYDPHFDYWGQGTLVTVSS VL: EIVLTQSPATLSLSPGERATLSCRASQSISDFLHWYQQKSGQSPRLLIKYASQSISGIPARFSGSGSGSDFTLTISSVEPEDFAVYYCQSAHSFPYTFGQGTKLEIKR | 11.4 | 0.00227 | 199000
1CP-120 (antibody, human IgG1, kappa, V domains shown, humanized 8E5, human IgG1 kappa) VH: QVQLVQSGSELKKPGASVKVSCKASGYTLTDFSMHWVRQAPGQGLEWMGWINTETGAPTYADDFKGRFVFSLDTSVSTAYLQISSLKAEDTAVYYCSRGRDYDPHFDYWGQGTLVTVSS VL: EIVLTQSPATLSLSPGERATLSCRASQSISDFLHWYQQKSGQSPRLLIKYASQSISGIPARFSGSGSGSDFTLTISSVEPEDFAVYYCQSAHSFPYTFGQGTKLEIKR | 0.122 | 1.7e-05 | 139000
1CP-113 (antibody, human IgG1, kappa, V domains shown, humanized 8E5, human IgG1 kappa) VH: QVQLVQSGSELKKPGASVKVSCKASGYTLTDFSMHWVRQAPGQGLEWMGWINTETGAPTYADDFKGRFVLSLDTSVSTAYLQISSLKAEDTAVYYCSRGRDYDPHFDYWGQGTLVTVSS VL: EIVLTQSPATLSLSPGERATLSCRASQSISDFLHWYQQKPGQAPRLLIKYASQSISGIPARFSGSGPGSDFTLTISSVEPEDFAVYYCQSAHSFPYTFGQGTKLEIKR | 0.411 | 5.9e-05 | 143000
1CP-126 (antibody, human IgG1, kappa, V domains shown, humanized 3C11, human IgG1 kappa) VH: QVQLVQSGAEVKKPGASVKVSCKASGYNFISYWLHWVRQAPGQGLEWMGGIYPGNTDTTYNQKFKGRVTMTADTSTSTAYMELSSLRSEDTAVYYCIRYDYDRGMDYWGQGTLVTVSS VL: DIQMTQSPSSLSASVGDRVTITCRASEDIYYRLAWYQQKPGKAPKLLISGATALETGVPSRFSGSGSGKDYTFTISSLQPEDIATYYCQHYWNIPWTFGQGTKVEIKR | 6.78 | 0.00143 | 211000
1CP-135 (antibody, human IgG1, kappa, V domains shown, humanized 3C11, human IgG1 kappa) VH: QVQLVQSGAEVKKPGASVKVSCKASGYNFISYWLHWVRQAPGQGLEWMGGIYPGNTDTTYNQKFKGRVTVTAVTSTSTVYMELSSLRSEDTAVYYCIRYDYDRGMDYWGQGTLVTVSS VL: DIQMTQSPSSLSASVGDRVTITCRASEDIYYRLAWYQQKPGNAPKLLISGATALETGVPSRFSGSGSGKDYTLTISSLQPEDIATYYCQHYWNIPWTFGQGTKVEIKR | 4.8 | 0.0012 | 249000
1CP-131 (antibody, human IgG1, kappa, V domains shown, humanized 3C11, human IgG1 kappa) VH: QVQLVQSGAEVKKPGASVKVSCKASGYNFISYWLHWVRQAPGQGLEWMGGIYPGNTDTTYNQKFKGRVTVTAVTSTSTVYMELSSLRSEDTAVYYCIRYDYDRGMDYWGQGTLVTVSS VL: DIQMTQSPSSLSASVGDRVTITCRASEDIYYRLAWYQQKPGKAPKLLISGATALETGVPSRFSGSGSGKDYTLTISSLQPEDIATYYCQHYWNIPWTFGQGTKVEIKR | 10.5 | 0.002 | 191000
1CP-127 (antibody, human IgG1, kappa, V domains shown, humanized 3C11, human IgG1 kappa) VH: QVQLVQSGAEVKKPGASVKVSCKASGYNFISYWLHWVRQAPGQGLEWMGGIYPGNTDTTYNQKFKGRVTVTAVTSTSTVYMELSSLRSEDTAVYYCIRYDYDRGMDYWGQGTLVTVSS VL: DIQMTQSPSSLSASVGDRVTITCRASEDIYYRLAWYQQKPGKAPKLLISGATALETGVPSRFSGSGSGKDYTFTISSLQPEDIATYYCQHYWNIPWTFGQGTKVEIKR | 9.66 | 0.00198 | 205000
1CP-132 (antibody, human IgG1, kappa, V domains shown, humanized 3C11, human IgG1 kappa) VH: QVQLVQSGAEVKKPGASVKVSCKASGYNFISYWLHWVRQAPGQGLEWMGGIYPGNTDTTYNQKFKGRVTMTRDTSTSTVYMELSSLRSEDTAVYYCIRYDYDRGMDYWGQGTLVTVSS VL: DIQMTQSPSSLSASVGDRVTITCRASEDIYYRLAWYQQKPGNAPKLLISGATALETGVPSRFSGSGSGKDYTLTISSLQPEDIATYYCQHYWNIPWTFGQGTKVEIKR | ≤ 0.0713 | ≤ 1e-05 | 140000
1CP-133 (antibody, human IgG1, kappa, V domains shown, humanized 3C11, human IgG1 kappa) VH: QVQLVQSGAEVKKPGASVKVSCKASGYNFISYWLHWVRQAPGQGLEWMGGIYPGNTDTTYNQKFKGRVTMTADTSTSTVYMELSSLRSEDTAVYYCIRYDYDRGMDYWGQGTLVTVSS VL: DIQMTQSPSSLSASVGDRVTITCRASEDIYYRLAWYQQKPGNAPKLLISGATALETGVPSRFSGSGSGKDYTLTISSLQPEDIATYYCQHYWNIPWTFGQGTKVEIKR | ≤ 0.0546 | ≤ 1e-05 | 183000

Continued, values first:

Kd [nM] | koff [s⁻¹] | kon [M⁻¹ s⁻¹] | Binder
0.368 | 5e-05 | 136000 | 1CP-112 (antibody, human IgG1, kappa, V domains shown, humanized 8E5, human IgG1 kappa) VH: QVQLVQSGSELKKPGASVKVSCKASGYTLTDFSMHWVRQAPGQGLEWMGWINTETGAPTYADDFKGRFVFSLDTSVSTAYLQISSLKAEDTAVYYCSRGRDYDPHFDYWGQGTLVTVSS VL: EIVLTQSPATLSLSPGERATLSCRASQSISDFLHWYQQKPGQAPRLLIKYASQSISGIPARFSGSGPGSDFTLTISSVEPEDFAVYYCQSAHSFPYTFGQGTKLEIKR
5.51 | 0.00124 | 226000 | 1CP-119 (antibody, human IgG1, kappa, V domains shown, humanized 8E5, human IgG1 kappa) VH: QVQLQQSGSELKKPGESVKLSCKASGYTLTDFSMHWVRQAPGQGLKWMGWINTETGAPTYADDFKGRFVFSLDTSVSMAYLQISSLKSEDTAVYYCSRGRDYDPHFDYWGQGTLVTVSS VL: EIVLTQSPATLSLSPGERATLSCRASQSISDFLHWYQQKPGQSPRLLIKYASQSISGIPARFSGSGSGSDFTLTISSVEPEDFAVYYCQSAHSFPYTFGQGTKLEIKR
12.5 | 0.00209 | 167000 | 1CP-122 (antibody, human IgG1, kappa, V domains shown, humanized 8E5, human IgG1 kappa) VH: QVQLVQSGSELKKPGESVKVSCKASGYTLTDFSMHWVRQAPGQGLEWMGWINTETGAPTYADDFKGRFVLSLDTSVSTAYLQISSLKSEDTAVYYCSRGRDYDPHFDYWGQGTLVTVSS VL: EIVLTQSPATLSLSPGERATLSCRASQSISDFLHWYQQKSGQSPRLLIKYASQSISGIPARFSGSGSGSDFTLTISSVEPEDFAVYYCQSAHSFPYTFGQGTKLEIKR
15.2 | 0.00246 | 161000 | 1CP-114 (antibody, human IgG1, kappa, V domains shown, humanized 8E5, human IgG1 kappa) VH: QVQLVQSGSELKKPGESVKVSCKASGYTLTDFSMHWVRQAPGQGLEWMGWINTETGAPTYADDFKGRFVLSLDTSVSTAYLQISSLKSEDTAVYYCSRGRDYDPHFDYWGQGTLVTVSS VL: EIVLTQSPATLSLSPGERATLSCRASQSISDFLHWYQQKPGQAPRLLIKYASQSISGIPARFSGSGPGSDFTLTISSVEPEDFAVYYCQSAHSFPYTFGQGTKLEIKR
0.359 | 4.59e-05 | 128000 | 1CP-116 (antibody, human IgG1, kappa, V domains shown, humanized 8E5, human IgG1 kappa) VH: QVQLVQSGSELKKPGASVKVSCKASGYTLTDFSMHWVRQAPGQGLEWMGWINTETGAPTYADDFKGRFVFSLDTSVSTAYLQISSLKAEDTAVYYCSRGRDYDPHFDYWGQGTLVTVSS VL: EIVLTQSPATLSLSPGERATLSCRASQSISDFLHWYQQKPGQSPRLLIKYASQSISGIPARFSGSGSGSDFTLTISSVEPEDFAVYYCQSAHSFPYTFGQGTKLEIKR
3.6 | 0.000441 | 123000 | 1CP-156 (antibody, human IgG1, kappa, V domains shown, humanized 8C9, human IgG1 kappa) VH: EVQLVESGGGLVQPGRSLRLSCTTSGLTFTHYHMSWVRQAPGKGLEWVAIIRNKAYGYTTDYSASVRGRFTISRDDSKSILYLQMNSLKTEDTAVYYCVREGGYGYDGTFAYWGQGTLVTVSS VL: DIQMTQSPSSLSASVGDRVTITCRASESVDNYGISFMNWFQQKPGQPPKLLIYAASNQGSGVPSRFSGSGSGTDFTLTISSMQPEDFATYYCQQSKEVPRTFGGGTKVEIKR
10.5 | 0.00202 | 193000 | 1CP-134 (antibody, human IgG1, kappa, V domains shown, humanized 3C11, human IgG1 kappa) VH: QVQLVQSGAEVKKPGASVKVSCKASGYNFISYWLHWVRQAPGQGLEWMGGIYPGNTDTTYNQKFKGRVTMTADTSTSTAYMELSSLRSEDTAVYYCIRYDYDRGMDYWGQGTLVTVSS VL: DIQMTQSPSSLSASVGDRVTITCRASEDIYYRLAWYQQKPGNAPKLLISGATALETGVPSRFSGSGSGKDYTLTISSLQPEDIATYYCQHYWNIPWTFGQGTKVEIKR
